A word on the Kd: it is the constant that tells how readily two partners part at equilibrium.

This assay deals with T1, 3FTx-L15 (recombinant long-chain three-finger α-neurotoxin variant) (Ophiophagus hannah (king cobra), long …).
T1 chain: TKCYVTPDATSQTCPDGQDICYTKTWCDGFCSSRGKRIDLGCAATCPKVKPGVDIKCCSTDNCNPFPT

B1: 95Mat2 (antibody, V domains shown)
VH: QVQLVQSGAEVKKPGSSVKVSCKASGGTFSSYAISWVRQAPGQGLEWMGGIIPIFGTANYAQKFQGRVTITADESTSTAYMELSSLRSEDTAVYYCARIPLVWYESGPYESGVFDYWGQGTLVTVSS
VL: not shown
As for B1, the Kd is 0.1 nM.

B2: 95Mat6 (antibody, V domains shown)
VH: QVQLVQSGAEVKKPGSSVKVSCKASGGTFSSYAISWVRQAPGQGLEWMGGIIPIFGHANYAQKFQGRVTITADESTSTAYMELSSLRSEDTAVYYCARIPLIWYESGPYESGVFDYWGQGTLVTVSS
VL: not shown
Consider B2, for which the Kd amounted to 0.103 nM.

B3: 95Mat3 (antibody, V domains shown)
VH: QVQLVQSGAEVKKPGSSVKVSCKASGGTFSSYAISWVRQAPGQGLEWMGGIIPIFGPANYAQKFQGRVTITADESTSTAYMELSSLRSEDTAVYYCARIPLVWYESGPYESGVFDYWGQGTLVTVSS
VL: not shown
For B3, the binding result is “binds”.

B4: 95Mat4 (antibody, V domains shown)
VH: QVQLVQSGAEVKKPGSSVKVSCKASGGTFSSYAISWVRQAPGQGLEWMGGIIPIFGTANYAQKFQGRVTITADESTSTAYMELSSLRSEDTAVYYCARIPLHWYESGPYESGVFDYWGQGTLVTVSS
VL: not shown
As to B4, the binding result is recorded as “binds”.

Values taken from paper PMC7617732 (Science translational medicine, 2024).
